Assay results published in article PMC3823801, “Structure Reveals Regulatory Mechanisms of a MaoC-Like Hydratase from Phytophthora capsici Involved in Biosynthesis of Polyhydroxyalkanoates (PHAs)” (PLoS ONE, 2013).

Molecular target: the molecule itself
Test: SEC; analytical gel filtration, Superdex 75 10/300 GL, 10 mM Tris-HCl pH 8.5, 100 mM NaCl, 1 mM DTT; calibrated with BSA (66 kDa) and rabbit IgG (150 kDa)

Row | Protein | binding result | stoichiometry N
1 | MaoC Del63-71 (enzyme, MaoC-like hydratase, Phytophthora capsici strain SD33, full length with residues 63-71 deleted; Made from the wild-type plasmid (pET28-MaoC) with the MutanBEST kit; source: E. coli BL21 (DE3) pLysS, purified as described for the wild-type protein) MSVNVDKILNSPEATYTATYNQRDLLMYAVGIGESDLQFTYEFDEKFSAFPLYPVCLPFKGQETISAAPDGMPSFNPAMILHGEQSVEILRPLDPSGGTLTGKTKVISFYDKGKGTLMETQTQFEDGNGPVAKLISGSFIRGLTGYEGKGRKLPARVQIPKRQPDFNDEFKTSPHQAQVYRLSGDYNSLHIDPEIAKSVGFKQPILHGLCSMGVASRALFKQFCGGDVARFKSIRVRFSSPCFPGETIQTRMWQEGSGKVLFQAVVKERGAVIVDGGEFVYTQDASARL | binds | 
2 | MaoC-like hydratase from Phytophthora capsici (enzyme, MaoC-like hydratase, Phytophthora capsici strain SD33, full length (Met-1 to Leu-298); Cloned BamHI/EcoRI into pET28a; no step that removes the tag is described, and the purified enzymes were detected with anti-His antibody on western blots; also called wild type MaoC; native MaoC; source: E. coli BL21 (DE3) pLysS, purified (Ni-NTA, Superdex-75 gel filtration)) MSVNVDKILNSPEATYTATYNQRDLLMYAVGIGESDLQFTYEFDEKFSAFPLYPVCLPFKGQSQDVVPFPPETISAAPDGMPSFNPAMILHGEQSVEILRPLDPSGGTLTGKTKVISFYDKGKGTLMETQTQFEDGNGPVAKLISGSFIRGLTGYEGKGRKLPARVQIPKRQPDFNDEFKTSPHQAQVYRLSGDYNSLHIDPEIAKSVGFKQPILHGLCSMGVASRALFKQFCGGDVARFKSIRVRFSSPCFPGETIQTRMWQEGSGKVLFQAVVKERGAVIVDGGEFVYTQDASARL |  | 2
3 | MaoC Del63-88 (enzyme, MaoC-like hydratase, Phytophthora capsici strain SD33, full length with residues 63-88 deleted; Made from the wild-type plasmid (pET28-MaoC) with the MutanBEST kit; source: E. coli BL21 (DE3) pLysS, purified as described for the wild-type protein) MSVNVDKILNSPEATYTATYNQRDLLMYAVGIGESDLQFTYEFDEKFSAFPLYPVCLPFKGQILHGEQSVEILRPLDPSGGTLTGKTKVISFYDKGKGTLMETQTQFEDGNGPVAKLISGSFIRGLTGYEGKGRKLPARVQIPKRQPDFNDEFKTSPHQAQVYRLSGDYNSLHIDPEIAKSVGFKQPILHGLCSMGVASRALFKQFCGGDVARFKSIRVRFSSPCFPGETIQTRMWQEGSGKVLFQAVVKERGAVIVDGGEFVYTQDASARL | binds | 
